Laboratory results as given in patent US8207293B2, “Peptides derived from maurocalcine used as vectors for intracellular addressing of molecules of interest” (Commissariat a l'Energie Atomique, priority 2004, dated 2012).

Experiments:
HEK293 cells = test: Flow cytometry analysis of cellular penetration of complexes (trypsin/heparin treatment); assay type: cell-based, human; details: 10 nM to 1 μM complexes
Method: The cells are incubated with maurocalcine and the derived peptides, biotinylated and complexed with […], at the final concentration of 100 nM in PBS, in the dark and at ambient temperature for 1 hour. After 2 washes in PBS (PBS, in mM: […], 6.84 Na2HPO4, 3.16 NaH2PO4, pH 7.2), and the cells were treated with trypsin (1 mg/ml, INVITROGEN), for 10 min at 37° C., in order to remove the extracellular complexes and the plasma-membrane-bound complexes. After the incubation with trypsin, the cell suspension was centrifuged at 500 g and the cells were resuspended in PBS containing 1 μg/ml of propidium iodide (SIGMA). […] The analysis was carried out on live cells, using a flow cytometer (FACScalibur, BECTON DICKINSON). The data were recorded and analyzed using appropriate software (CellQuest, BD BIOSCIENCES). The live cells were sorted according to their size and their granulosity (forward/side scattering), over a total of 10 000 events.
The analysis is carried out as described in Example 1. For the heparin treatment experiments, the complexes were prepared in a heparin solution (bovine intestine heparin, sodium salt, SIGMA) and the cells were washed twice with the heparin solution, before and after incubation with the complexes prepared in the same heparin solution.
The cellular penetration was analyzed by flow cytometry, on cells incubated with the MCab/Strept-Cy3 complexes, and then treated with trypsin, so as to remove the complexes bound to the plasma membrane by means of lipids, specific receptors or heparan sulfate glycosaminoglycan (HPSG). It has been shown that this method makes it possible to effectively study the entry of penetrating peptides into cells (Richard et al., J. Biol. Chem., 2003, 278, 585-590).

RyR1 receptor [1] = biological target: T1, RyR1 receptor (Oryctolagus cuniculus, UniProt P11716); test: Tritiated ryanodine binding assay on heavy sarcoplasmic reticulum vesicles; details: 100 nM complex
T1 construct: from tissue; host or cells: heavy sarcoplasmic reticulum vesicles (skeletal muscle implied)
Method: (§1) The heavy sarcoplasmic reticulum vesicles are prepared according to the method of Kim et al. (J. Biol. Chem., 1983, 258, 9662-9668) modified as described in Marty et al. (J. Biol. Chem., 2000, 275, 8206-8212). The protein concentration is measured by the Biuret method.
The heavy sarcoplasmic reticulum vesicles (1 mg/ml) are incubated at 37° C. for 2 hours and 30 min, in reaction buffer comprising 5 nM [^3H]-ryanodine, 150 mM NaCl, 2 mM EGTA, 2 mM Ca^2+ (pCa=5) and 20 mM Hepes, pH 7.4. Maurocalcine, the maurocalcine-derived peptides and their biotinylated derivatives are added before the addition of the heavy sarcoplasmic reticulum vesicles. The [^3H]-ryanodine bound to the heavy sarcoplasmic vesicles is measured by filtration through Whatmann GF/B filters, followed by three washes with 5 ml of ice-cold washing buffer (150 mM NaCl, 20 mM Hepes, pH 7.4). The [^3H]-ryanodine retained on the filters is measured by liquid scintillation. The nonspecific binding is measured in the presence of […] ryanodine (20 μM). The results are given in the form of means±standard deviation. Each experiment is carried out in triplicate and repeated at least twice.

RyR1 receptor [2] = biological target: T1, RyR1 receptor; test: Ca2+ release by heavy sarcoplasmic reticulum vesicles (antipyrylazo III); assay type: biochemical; details: 100 nM complex
Method: as §1
The Ca^2+ release by the heavy sarcoplasmic reticulum vesicles was measured using a Ca^2+-sensitive dye, antipyrylazo III. The absorbance was measured at 710 nm, using a diode-array spectrophotometer (MOS-200, Optical System, BIOLOGIC). The heavy sarcoplasmic reticulum vesicles (50 μg) were actively loaded with Ca^2+, at 37° C., in 2 ml of buffer containing 100 mM KCl, 7.5 mM sodium pyrophosphate, 20 mM MOPS, pH 7.0, to which 250 μM of antipyrylazo III, 1 mM ATP/MgCl2, 5 mM phosphocreatine and 12 μg/ml of creatine phosphokinase had been added (Palade, J. Biol. Chem., 1987, 262, 6142-6148).
The calcium loading begins with sequential additions of 50 μM and 20 μM CaCl2.
Under these loading conditions, no calcium-induced calcium release interferes with the observations. At the end of each experiment, the Ca^2+ remaining in the vesicles is measured by the addition of 4 μM of Ca^2+ ionophore, […] (Sigma), and the absorbance signal is calibrated by means of two consecutive additions of 20 μM CaCl2.

T1 sequence (P11716 whole entry): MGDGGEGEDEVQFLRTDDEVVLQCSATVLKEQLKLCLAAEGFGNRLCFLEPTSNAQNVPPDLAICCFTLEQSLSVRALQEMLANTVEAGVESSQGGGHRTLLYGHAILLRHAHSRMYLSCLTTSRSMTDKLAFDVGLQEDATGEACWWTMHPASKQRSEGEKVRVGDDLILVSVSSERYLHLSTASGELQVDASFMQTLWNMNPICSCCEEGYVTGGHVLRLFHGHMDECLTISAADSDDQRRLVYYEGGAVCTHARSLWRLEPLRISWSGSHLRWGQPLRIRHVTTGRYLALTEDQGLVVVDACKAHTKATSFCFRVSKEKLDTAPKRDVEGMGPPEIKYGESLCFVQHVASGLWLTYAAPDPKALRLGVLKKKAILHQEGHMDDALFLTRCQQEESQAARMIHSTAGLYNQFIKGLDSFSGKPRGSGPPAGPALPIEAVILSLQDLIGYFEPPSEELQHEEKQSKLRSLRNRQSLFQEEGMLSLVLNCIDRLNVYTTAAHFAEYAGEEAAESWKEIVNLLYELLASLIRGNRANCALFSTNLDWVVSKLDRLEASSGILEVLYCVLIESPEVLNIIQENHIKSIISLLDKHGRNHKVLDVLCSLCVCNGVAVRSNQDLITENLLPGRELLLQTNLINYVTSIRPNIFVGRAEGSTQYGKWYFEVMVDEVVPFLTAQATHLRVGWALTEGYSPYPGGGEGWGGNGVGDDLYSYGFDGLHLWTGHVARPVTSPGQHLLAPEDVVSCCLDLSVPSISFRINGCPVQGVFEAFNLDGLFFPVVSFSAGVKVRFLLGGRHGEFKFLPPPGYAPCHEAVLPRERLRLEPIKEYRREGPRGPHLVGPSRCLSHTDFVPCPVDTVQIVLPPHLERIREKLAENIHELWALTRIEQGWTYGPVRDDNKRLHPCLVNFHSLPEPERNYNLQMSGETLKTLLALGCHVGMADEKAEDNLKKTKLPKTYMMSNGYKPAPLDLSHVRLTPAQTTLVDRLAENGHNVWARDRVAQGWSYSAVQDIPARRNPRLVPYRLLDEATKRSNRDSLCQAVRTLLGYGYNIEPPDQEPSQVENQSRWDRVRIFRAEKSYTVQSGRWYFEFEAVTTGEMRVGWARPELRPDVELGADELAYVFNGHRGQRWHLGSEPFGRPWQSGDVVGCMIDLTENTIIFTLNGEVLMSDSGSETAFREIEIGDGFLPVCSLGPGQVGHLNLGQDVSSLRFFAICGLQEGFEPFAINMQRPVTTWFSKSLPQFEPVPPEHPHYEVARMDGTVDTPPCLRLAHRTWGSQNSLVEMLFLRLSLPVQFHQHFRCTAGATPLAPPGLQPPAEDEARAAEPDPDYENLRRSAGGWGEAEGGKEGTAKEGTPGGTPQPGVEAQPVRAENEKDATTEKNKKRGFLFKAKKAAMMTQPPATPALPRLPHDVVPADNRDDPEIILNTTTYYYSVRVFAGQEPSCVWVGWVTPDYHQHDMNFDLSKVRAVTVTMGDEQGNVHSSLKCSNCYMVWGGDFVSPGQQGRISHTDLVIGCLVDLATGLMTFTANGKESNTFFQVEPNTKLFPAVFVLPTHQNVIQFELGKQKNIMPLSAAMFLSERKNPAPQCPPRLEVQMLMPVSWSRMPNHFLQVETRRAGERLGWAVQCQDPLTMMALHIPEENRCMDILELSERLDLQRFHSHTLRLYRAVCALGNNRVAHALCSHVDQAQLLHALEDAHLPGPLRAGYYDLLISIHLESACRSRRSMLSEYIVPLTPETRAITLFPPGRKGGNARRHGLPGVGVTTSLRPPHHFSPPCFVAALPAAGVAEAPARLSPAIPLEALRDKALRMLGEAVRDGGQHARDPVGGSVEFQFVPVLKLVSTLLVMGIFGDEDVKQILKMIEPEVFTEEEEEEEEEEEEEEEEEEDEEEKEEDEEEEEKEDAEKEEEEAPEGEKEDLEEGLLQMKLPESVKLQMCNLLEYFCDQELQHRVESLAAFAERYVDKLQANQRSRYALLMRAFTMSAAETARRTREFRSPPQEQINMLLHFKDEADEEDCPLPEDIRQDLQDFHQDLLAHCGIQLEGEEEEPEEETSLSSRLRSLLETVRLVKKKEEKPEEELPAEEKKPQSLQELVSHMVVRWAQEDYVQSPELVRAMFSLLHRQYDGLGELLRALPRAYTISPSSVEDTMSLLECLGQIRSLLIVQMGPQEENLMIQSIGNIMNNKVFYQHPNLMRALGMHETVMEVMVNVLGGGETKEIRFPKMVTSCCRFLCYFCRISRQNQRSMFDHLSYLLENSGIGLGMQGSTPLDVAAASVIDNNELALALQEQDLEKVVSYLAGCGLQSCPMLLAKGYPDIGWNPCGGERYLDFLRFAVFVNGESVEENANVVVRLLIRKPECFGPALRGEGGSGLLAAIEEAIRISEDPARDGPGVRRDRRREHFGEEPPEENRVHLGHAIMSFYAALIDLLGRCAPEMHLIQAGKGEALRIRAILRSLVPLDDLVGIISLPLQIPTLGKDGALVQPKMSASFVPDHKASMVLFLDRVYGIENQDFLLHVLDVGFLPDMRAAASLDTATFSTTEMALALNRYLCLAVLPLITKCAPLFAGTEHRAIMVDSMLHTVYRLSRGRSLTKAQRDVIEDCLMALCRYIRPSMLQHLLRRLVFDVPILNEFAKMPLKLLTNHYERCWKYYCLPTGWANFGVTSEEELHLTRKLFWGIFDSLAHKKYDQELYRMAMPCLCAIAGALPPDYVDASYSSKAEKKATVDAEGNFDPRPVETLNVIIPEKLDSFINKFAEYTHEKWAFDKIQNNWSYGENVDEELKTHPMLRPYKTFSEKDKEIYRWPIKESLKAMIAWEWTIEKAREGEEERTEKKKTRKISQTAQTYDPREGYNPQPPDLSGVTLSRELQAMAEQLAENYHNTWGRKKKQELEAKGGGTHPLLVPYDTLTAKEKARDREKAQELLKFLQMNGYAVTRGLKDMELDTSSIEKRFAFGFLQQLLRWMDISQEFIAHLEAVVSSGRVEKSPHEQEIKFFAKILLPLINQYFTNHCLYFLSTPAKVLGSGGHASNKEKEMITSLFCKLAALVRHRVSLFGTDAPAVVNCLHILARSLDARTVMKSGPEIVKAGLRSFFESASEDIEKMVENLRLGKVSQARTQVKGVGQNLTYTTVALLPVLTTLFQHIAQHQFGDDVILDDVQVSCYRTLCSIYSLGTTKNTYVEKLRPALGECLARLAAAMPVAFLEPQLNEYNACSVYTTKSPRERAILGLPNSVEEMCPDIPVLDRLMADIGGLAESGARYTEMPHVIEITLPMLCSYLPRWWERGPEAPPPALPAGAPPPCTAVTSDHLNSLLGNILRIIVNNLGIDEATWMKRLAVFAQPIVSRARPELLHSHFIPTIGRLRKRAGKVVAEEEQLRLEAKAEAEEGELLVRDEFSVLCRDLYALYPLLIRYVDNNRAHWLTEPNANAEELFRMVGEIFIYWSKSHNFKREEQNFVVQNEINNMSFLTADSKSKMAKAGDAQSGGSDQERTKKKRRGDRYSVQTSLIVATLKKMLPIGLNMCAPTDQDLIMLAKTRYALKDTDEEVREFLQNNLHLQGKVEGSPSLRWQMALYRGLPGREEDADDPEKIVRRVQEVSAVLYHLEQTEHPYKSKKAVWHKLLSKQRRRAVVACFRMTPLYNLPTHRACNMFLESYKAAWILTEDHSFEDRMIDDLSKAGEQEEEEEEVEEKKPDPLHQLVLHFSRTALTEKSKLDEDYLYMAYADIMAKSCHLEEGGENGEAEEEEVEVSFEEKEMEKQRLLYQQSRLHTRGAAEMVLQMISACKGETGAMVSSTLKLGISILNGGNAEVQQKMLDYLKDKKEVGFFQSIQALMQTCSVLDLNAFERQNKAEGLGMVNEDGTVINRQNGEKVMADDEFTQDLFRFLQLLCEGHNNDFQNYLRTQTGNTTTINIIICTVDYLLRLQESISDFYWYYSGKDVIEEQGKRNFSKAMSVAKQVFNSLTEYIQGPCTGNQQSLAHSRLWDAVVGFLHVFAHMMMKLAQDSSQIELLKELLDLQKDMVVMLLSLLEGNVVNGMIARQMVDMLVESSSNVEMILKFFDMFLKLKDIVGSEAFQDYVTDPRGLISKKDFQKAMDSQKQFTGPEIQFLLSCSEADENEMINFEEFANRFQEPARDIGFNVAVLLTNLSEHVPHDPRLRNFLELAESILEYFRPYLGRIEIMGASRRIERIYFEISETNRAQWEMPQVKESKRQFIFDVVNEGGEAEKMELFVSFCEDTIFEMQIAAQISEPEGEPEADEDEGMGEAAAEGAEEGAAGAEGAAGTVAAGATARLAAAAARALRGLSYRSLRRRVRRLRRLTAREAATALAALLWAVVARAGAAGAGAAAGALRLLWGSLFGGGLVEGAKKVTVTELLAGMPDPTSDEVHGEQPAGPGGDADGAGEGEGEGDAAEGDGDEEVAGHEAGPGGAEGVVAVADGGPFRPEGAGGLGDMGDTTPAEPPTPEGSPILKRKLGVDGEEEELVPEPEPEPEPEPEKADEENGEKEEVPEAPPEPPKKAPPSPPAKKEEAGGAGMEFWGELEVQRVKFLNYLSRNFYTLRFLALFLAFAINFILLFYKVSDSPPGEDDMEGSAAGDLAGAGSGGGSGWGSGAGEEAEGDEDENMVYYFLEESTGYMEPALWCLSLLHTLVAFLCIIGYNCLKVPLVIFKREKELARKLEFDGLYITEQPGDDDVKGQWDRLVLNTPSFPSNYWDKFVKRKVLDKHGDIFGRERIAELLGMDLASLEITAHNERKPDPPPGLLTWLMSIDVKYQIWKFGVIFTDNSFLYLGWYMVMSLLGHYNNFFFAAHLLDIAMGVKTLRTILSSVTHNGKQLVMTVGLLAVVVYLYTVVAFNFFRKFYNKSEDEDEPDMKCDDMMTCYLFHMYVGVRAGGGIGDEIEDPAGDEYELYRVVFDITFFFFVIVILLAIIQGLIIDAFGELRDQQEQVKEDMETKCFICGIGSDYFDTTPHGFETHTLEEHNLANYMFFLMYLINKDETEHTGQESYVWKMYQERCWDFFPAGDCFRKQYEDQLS

For “MCab/Strept-Cy3: biotinylated maurocalcine, complexed with cyanin-3-labeled streptavidin”, the saturability of penetration (HEK293 cells) was “cannot be saturated”, the “stimulation of [3H]-ryanodine binding to heavy sarcoplasmic reticulum vesicles” value (RyR1 receptor [1]) was “conserve the ability to stimulate [^3H]-ryanodine binding” and the “efficiency of Ca2+ release in comparison with maurocalcine alone” value (RyR1 receptor [2]) was “slightly reduced efficiency”. For the same substance, the “induction of Ca2+ release from sarcoplasmic reticulum vesicles” value (RyR1 receptor [2]) was “induce Ca^2+ release”.
